Assay: soluble on expression in E. coli; label from the status in PepcDB or PDB records

Sequence | soluble on expression in E. coli
MAASAAATAAASAATAASAASGSPGSGEGSAGGEKRPAASSAAAASAAASSPAGGGGEAQELLEHCGVCRERLRPERDPRLLPCLHSACSACLGPATPAAANNSGDGGSAGDGAMVDCPVCKQQCYSKDIVENYFMRDSGSKASSDSQDANQCCTSCEDNAPATSYCVECSEPLCETCVEAHQRVKYTKDHTVRSTGPAKTRDGERTVYCNVHKHEPLVLFCESCDTLTCRDCQLNAHKDHQYQFLEDAVRNQRKLLASLVKRLGDKHATLQKNTKEVRSSIRQVSDVQKRVQVDVKMAILQIMKELNKRGRVLVNDAQKVTEGQQERLERQHWTMTKIQKHQEHILRFASWALESDNNTALLLSKKLIYFQLHRALKMIVDPVEPHGEMKFQWDLNAWTKSAEAFGKIVAERPGTNSTGPGPMAPPRAPGPLSKQGSGSSQPMEVQEGYGFGSDDPYSSAEPHVSGMKRSRSGEGEVSGLLRKVPRVSLERLDLDLTSDSQPPVFKVFPGSTTEDYNLIVIERGAAAAAAGQAGTVPPGAPGAPPLPGMAIVKEEETEAAIGAPPAAPEGPETKPVLMPLTEGPGAEGPRLASPSGSTSSGLEVVAPEVTSAPVSGPGILDDSATICRVCQKPGDLVMCNQCEFCFHLDCHLPALQDVPGEEWSCSLCHVLPDLKEEDGSLSLDGADSTGVVAKLSPANQRKCERVLLALFCHEPCRPLHQLATDSTFSMEQPGGTLDLTLIRARLQEKLSPPYSSPQEFAQDVGRMFKQFNKLTEDKADVQSIIGLQRFFETRMNDAFGDTKFSAVLVEPPPLNLPSAGLSSQELSGPGDGP | soluble
MKLALVNRQVILPESGTESFQCHASTLVRLPCGTLVAAWFAGLREGSEDTAIWLSRYEHNIWTTPQRVAAREGEAHWNPVLFYPSDKLWLFYKVGSDVHVWKTWFITSSDRGFTWSTPAPLVNDDILPRGPVKNKLLLASNGAWIAPGSIESPERWRAFVDRSSDEGKHWSISFVPLEPDNAISGTNVALWDGIKKGRLWECCLENLLRWDGVIQPTLWESSPGHIHMLLRSTRGAIFRSDSIDYGATWSVARATSLPNNNSGIDLVSMQDGTLILALNPVNGNWGKRYPLSLIASQDNGESWLPLLDLESDHGEYSYPAIISEGGIVHITYTWNRKNIVYCRLQTVLEHHHHHH | not soluble
MIIVYTTFPDWESAEKVVKTLLKERMIACANLREHRAFYWWEGKIEEDKEVGAILKTREDLWEELKERIKELHPYDVPAIIRIDVDDVNEDYLKWLIEETKK | soluble
MGSDKIHHHHHHVNAIQVPDAPVVLSTASVYPEKTPAAFEIAAELGYDGIEVMVTADPVSQDIDMLRRLSEYHQIPITAIHAPCLIFTQRVWGRDPWIKLIKSKEMAEALGATTVVVHPAFKWQREYAREFESGILKMRDETDVIFAVENMYQVRMRGKEVVPYAPSWNPLDRDYPNVTLDLSHTAMSQSDAMDMARQLGDRLSHVHLADGVGGQNFDEHLIPGRGNQPCAELLEHLANNDYRGQIVLEVNTRKSDRETRLTELAEALAFTRLHFARSVPPEPRSEQPEREQIVVRSVPAPALRVFSVHSDGTVSTD | not soluble
MGSDKIHHHHHHMRVLLLSDIHSSTQNLEKILKAAEYDAVFIAGDLTQFRPKDAKVVDEIISEQTDSCLAVHGNCDHEAILGEKYKALKFIHGKSVEFDGYTVHGVGGSGITPFNTPSEYTEREILEIMDNFVLRDFNILLSHCPPKGFLDRTYSGVHAGCEAIRERMIEFDVILCGHIHESHGVVDSPQLIVNPGPVMWGRFAVIDVEKKVVELRKL | not soluble
MGSDKIHHHHHHMKPIDLDKLDLLTLSILVSLYENKSATHVSRILDVPASKISRCLHTARLIFGDELFIRRKYGLVPNDYAGKIYPIAKEIVECAKHFNRLNSAEQSHNRYFELVIPGMIAYAYPRALMKAIKEHNKNIHINVSSWSSHSLESVTSDPHCIVMCCCKGPEEILCFDQKLQVEVLATMNRQYLLSCRKHPILKQDISLETIAKYPYINTFIGTQAPILNPFQEYCQAKDLSLNTEMTITSVSSLFDYLSDCQSLAITPYKAVYDMLDDDSGLHACQLSEYECNRLFEVVEPLKLVLVTHPSADNEDTAWLKQQIRELTHELI | not soluble
MESFIDRITEETDENFRICRENIPNFETTISPLLNTMKNIKLLLDDAAFDQQKLENNCEETCMNCTKSQLNDFLGIKVEASTIVDVKSQLVPQSKESSALVETNEPNEQGLSSKPKENDIRIVPQITDEEFKTIPKYQLGRLTLEMMNEIVSKMDDFLMKKSKILGKTNKQLTRSDREVLDNWRELEMKARKRLPTTLFFIETDIRPMLQDRLRPSFAKAIPCLRHIRRIREERCGPLTFYYP | not soluble
